Columns and labels:
unmodified FVIII mutein = unmodified FVIII mutein (UniProt P00451)
[1] = target: PEG-FVIII (FVIII mutein directly, non-cleavably conjugated to PEG) (UniProt P00451)
[2] = target: PEG-linker-FVIII (FVIII mutein conjugated to PEG through a thrombin-cleavable linker, linker not named in Example 2) (UniProt P00451)

**Q.** thrombin was tested. Which “SDS-PAGE after thrombin digestion (30 min at 37° C.)” value (unmodified FVIII mutein) did it give?
**A.** Its value is “After thrombin digestion, the FVIII light and heavy chains disappear and are replaced by cleavage products”.

**Q.** And the “SDS-PAGE after thrombin digestion” value [1]?
**A.** The value was “there was no removal of PEG-conjugated light chain (lane 4)”.

**Q.** And the “SDS-PAGE after thrombin digestion (30 min at 37° C.)” value [2]?
**A.** Its value is “the PEG-conjugated light chain almost completely disappeared in SDS-PAGE analysis, indicating a complete removal of PEG”.

Source: patent publication US20120121613
